Assay results reported in PMC10658565, “Polymorphic nanobody crystals as long‐acting intravitreal therapy for wet age‐related macular degeneration” (Bioengineering & Translational Medicine, 2023).

B1: mNb‐WT [not stated] / recombinant VEGF‐A165 protein [not stated] (parent complex)
chain 1: MDVQLVESGGGLVQPGGSLRLSCAASGRTFSSYSMGWFRQAPGKEREFVVAISKGGYKYDAVSLEGRFTISRDNAKNTVYLQINSLRPEDTAVYYCASSRAYGSSRLRLADTYEYWGQGTLVTVSS
chain 2: APMAEGGGQNHHEVVKFMDVYQRSYCHPIETLVDIFQEYPDEIEYIFKPSCVPLMRCGGCCNDEGLECVPTEESNITMQIMRIKPHQGQHIGEMSFLQHNKCECRPKKDRARQENPCGPCSERRKHLFVQDPQTCKCSCKNTDSRCKARQLELNERTCRCDKPRR

Variants of: B1
Assay: ELISA; parent: 0.73 nM

Variant	EC50
chain 1 MDVQLVEAGGGLVQPGGSLRLSCAASGRTFSSYSMGWFRQAPGKEREFVVAISKGGYKYDAVSLEGRFTISRDNAKNTVYLQINSLRPEDTAVYYCASSRAYGSSRLRLADTYEYWGQGTLVTVSS [chain 1 S8A]	0.82 nM
chain 1 MDVQLVESGGGLVQPGGSLRLSCAASGRTFSSYSMGWFRQAPGKAREFVVAISKGGYKYDAVSLEGRFTISRDNAKNTVYLQINSLRPEDTAVYYCASSRAYGSSRLRLADTYEYWGQGTLVTVSS [chain 1 E45A]	0.79 nM
chain 1 MDVQLVESGGGLVQPGGSLRLSCAASGRTFSSYSMGWFRQAPGKEREFVVAISKGGYKYDAVSLEGRFTISRDNAKNTVYLQINSLRPEDTAVYFCASSRAYGSSRLRLADTYEYWGQGTLVTVSS [chain 1 Y95F]	0.8 nM
chain 1 MDVQLVESGGGLVQPGGSLRLSCAASGRTFSSYSMGWFRQAPGAAREFVVAISKGGYKYDAVSLEGRFTISRDNAKNTVYLQINSLRPEDTAVYYCASSRAYGSSRLRLADTYEYWGQGTLVTVSS [chain 1 K44A, chain 1 E45A]	0.91 nM

The remaining variants from weak to strong by EC50, led by results:

EC50	Variant
0.77 nM	chain 1 MDVQLVESGGGLVNPGGSLRLSCAASGRTFSSYSMGWFRQAPGKEREFVVAISKGGYKYDAVSLEGRFTISRDNAKNTVYLQINSLRPEDTAVYYCASSRAYGSSRLRLADTYEYWGQGTLVTVSS [chain 1 Q14N]
0.77 nM	chain 1 MDVQLVESGGGLVQPGGSLRLSCAASGRTFSSYSMGWFRQAPGKEREFVVAISKGGYKYDAVSLEGRFTISRDNAKNTVYLQINSLRPEDTAVYYCASSRAYGSSRLRLADTYEYWGNGTLVTVSS [chain 1 Q118N]
0.62 nM	chain 1 MDVQLVESGGGLVQPGGSLRLSCAASGRTFSSYSMGWFRQAPGAEREFVVAISKGGYKYDAVSLEGRFTISRDNAKNTVYLQINSLRPEDTAVYYCASSRAYGSSRLRLADTYEYWGQGTLVTVSS [chain 1 K44A]
